Experimental data as given in patent US20260250320A1, “LIPIDATED PEPTIDE INHIBITORS OF INTERLEUKIN-23 RECEPTOR” (Janssen Pharmaceutica NV, priority 2023, published 2026).
*1 amine or outer side, *2 acyl side, *3 side chain or, on linkers, in order; H or OH if unused. Bridges are numbered along the chain shown (N, C = ends). Primed or numbered codes have the meaning given here. Where no end group is shown, it is not given here. Side-chain parts run from the residue outwards. [ ]: non-standard residue; d: D form. The star is where a group is joined. code d = side-chain group of K(d): lysine given as (2R)-2-(4-((5-amino-5-carboxypentyl)amino)-4-oxobutanamido)-3-carboxy-N,N,N-trimethylpropan-1-aminium, C[N+](C)(C)C[C@@H](CC(=O)O)NC(=O)CCC(=O)*; code d″ = lysine side-chain amide of a carnitine-succinyl group ((2R)-3-carboxy-N,N,N-trimethylpropan-1-aminium amide; Biotin = O=C1N[C@H]2[C@H](CS[C@H]2CCCCC(=O)*)N1; PEG2′ = PEG2 spacer unit (not further defined); Trp(7-Me) = Cc1cccc2c(C[C@H](N)C(=O)O)c[nH]c12; γGlu = O=C(O)[C@H](CCC(=O)[*:2])N[*:1]; 2Nal = N[C@@H](Cc1ccc2ccccc2c1)C(=O)O; AEF = NCCOc1ccc(C[C@H](N)C(=O)O)cc1; 3Pal = N[C@@H](Cc1cccnc1)C(=O)O; NMeK = CN[C@@H](CCCCN)C(=O)O; Pen = CC(C)(S)[C@H](N)C(=O)O; PEG12′ = not defined here; PEG2″ = PEG2 spacer unit; PEG4′ = not defined here; dAEF′ = not defined here; Thp = NC1(C(=O)O)CCOCC1; Sar = CNCC(=O)O

T1: interleukin-23 receptor (IL-23R) (UniProt Q5VWK5 24-629, limits assumed)
T1 sequence (looked up): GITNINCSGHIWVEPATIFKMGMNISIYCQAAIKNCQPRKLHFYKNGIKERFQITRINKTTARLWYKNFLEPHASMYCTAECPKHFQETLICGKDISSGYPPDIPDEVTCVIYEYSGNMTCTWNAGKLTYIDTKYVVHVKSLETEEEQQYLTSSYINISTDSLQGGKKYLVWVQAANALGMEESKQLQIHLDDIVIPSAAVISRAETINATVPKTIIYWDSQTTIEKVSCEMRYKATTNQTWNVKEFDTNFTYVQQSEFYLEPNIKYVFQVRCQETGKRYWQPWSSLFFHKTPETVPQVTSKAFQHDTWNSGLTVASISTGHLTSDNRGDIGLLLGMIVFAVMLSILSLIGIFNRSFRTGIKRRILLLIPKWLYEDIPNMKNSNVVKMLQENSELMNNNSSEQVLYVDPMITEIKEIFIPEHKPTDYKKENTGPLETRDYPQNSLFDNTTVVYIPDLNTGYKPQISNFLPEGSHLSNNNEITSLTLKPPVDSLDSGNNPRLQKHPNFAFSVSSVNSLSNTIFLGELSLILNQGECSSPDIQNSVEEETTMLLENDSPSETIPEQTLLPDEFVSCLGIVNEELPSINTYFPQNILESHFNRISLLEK

B1: SEQ ID NO: 34 (peptide)
peptide: Ac-[dK]([PEG2′-PEG2′-γGlu-C18OH])[Pen]NT[Trp(7-Me)]X[Pen][AEF][2Nal][Thp]EN[3Pal][Sar]-NH2
modifications: disulfide 2-7 (inferred); not fully specified (residue 6); printed as MeCO-k(PEG2PEG2gEC18OH)-Pen(3)-N-T-7MeW-K(d)-Pen(3)-AEF-2Nal-THP-E-N-3Pya-Sar-CONH2
B2: SEQ ID NO: 149 (peptide)
peptide: XNTXXXXXXENXXK
modifications: MeCO-Pen(3)-N-T-7MeW-K(Ac)-Pen(3)-AEF-2Nal-THP-E-N-3Pya-Sar-K(PEG2PEG2gEC18OH)-CON(Me)2
B3: SEQ ID NO: 33 (peptide)
peptide: Ac-[dK]([PEG2′-PEG2′-γGlu-C18OH])[Pen]NT[Trp(7-Me)]K(Ac)[Pen][AEF][2Nal][Thp]XN[3Pal][Sar]-NH2
modifications: disulfide 2-7 (inferred); not fully specified (residue 11); printed as MeCO-k(PEG2PEG2gEC18OH)-Pen(3)-N-T-7MeW-K(Ac)-Pen(3)-AEF-2Nal-THP-K(d)-N-3Pya-Sar-CONH2
B4: SEQ ID NO: 161 (peptide)
peptide: XNTXXXXXXENXXK
modifications: MeCO-Pen(3)-N-T-7MeW-K(Ac)-Pen(3)-AEF-2Nal-THP-E-N-3Pya-Sar-K(PEG12gEC18OH)-CONH2
B5: SEQ ID NO: 150 (peptide)
peptide: XNTXXXXXXENXXK
modifications: not fully specified; MeCO-Pen(3)-N-T-7MeW-K(Ac)-Pen(3)-AEF-2Nal-THP-E-N-3Pya-Sar-K(PEG2PEG2gEC18OH)-CONH(PEG3a)
B6: SEQ ID NO: 30 (peptide)
peptide: Ac-[dR][Pen]XT[Trp(7-Me)]K(Ac)[Pen][AEF][2Nal][Thp]EN[3Pal][NMeK]([PEG2′-PEG2′-γGlu-C18OH])-NH2
modifications: disulfide 2-7 (inferred); not fully specified (residue 3); printed as MeCO-r-Pen(3)-K(d)-T-7MeW-K(Ac)-Pen(3)-AEF-2Nal-THP-E-N-3Pya-NMeK(PEG2PEG2gEC18OH)-CONH2
B7: SEQ ID NO: 43 (peptide)
peptide: [dR][Pen]NT[Trp(7-Me)]K(Ac)[Pen][AEF][2Nal][Thp]EN[3Pal][NMeK](code d)-NH2
modifications: disulfide 2-7 (inferred); not fully specified (N-terminus); printed as HOC18gEPEG2PEG2CO-r-Pen(3)-N-T-7MeW-K(Ac)-Pen(3)-AEF-2Nal-THP-E-N-3Pya-NMeK(d)-CONH2
B8: SEQ ID NO: 3 (peptide)
peptide: XNTXXXXXXENXXK
modifications: MeCO-Pen(3)-N-T-7MeW-K(Ac)-Pen(3)-AEF-2Nal-THP-E-N-3Pya-Sar-K(PEG2NMePEG2NMegENMeC18Tetrazole)-CONH2
B9: SEQ ID NO: 22 (peptide)
peptide: Ac-[dR][Pen]NT[Trp(7-Me)]K(Ac)[Pen][dAEF′][2Nal][Thp]K([PEG2′-PEG2′-γGlu-C18OH])N[3Pal][Sar]-NH2
modifications: disulfide 2-7 (inferred); reading uncertain; also: printed as MeCO-r-Pen(3)-N-T-7MeW-K(Ac)-Pen(3)-AEF(d)-2Nal-THP-K(PEG2PEG2gEC18OH)-N-3Pya-Sar-CONH2
B10: SEQ ID NO: 46 (peptide)
peptide: [dR][Pen]NT[Trp(7-Me)]K(code d)[Pen][AEF][2Nal][Thp]EN[3Pal][Sar]-NH2
modifications: disulfide 2-7 (inferred); not fully specified (N-terminus); printed as HOC18gEPEG2PEG2CO-r-Pen(3)-N-T-7MeW-K(d)-Pen(3)-AEF-2Nal-THP-E-N-3Pya-Sar-CONH2
B11: SEQ ID NO: 37 (peptide)
peptide: Ac-[dR][Pen]XT[Trp(7-Me)]K(Ac)[Pen][AEF][2Nal][Thp]K([PEG2′-PEG2′-γGlu-C18OH])N[3Pal][Sar]-NH2
modifications: disulfide 2-7 (inferred); not fully specified (residue 3); printed as MeCO-r-Pen(3)-K(d)-T-7MeW-K(Ac)-Pen(3)-AEF-2Nal-THP-K(PEG2PEG2gEC18OH)-N-3Pya-Sar-CONH2
B12: SEQ ID NO: 35 (peptide)
peptide: Ac-[dK]([PEG2′-PEG2′-γGlu-C18OH])[Pen]XT[Trp(7-Me)]K(Ac)[Pen][AEF][2Nal][Thp]EN[3Pal][Sar]-NH2
modifications: disulfide 2-7 (inferred); not fully specified (residue 3); printed as MeCO-k(PEG2PEG2gEC18OH)-Pen(3)-K(d)-T-7MeW-K(Ac)-Pen(3)-AEF-2Nal-THP-E-N-3Pya-Sar-CONH2
B13: SEQ ID NO: 26 (peptide)
peptide: Ac-K[Pen]NT[Trp(7-Me)]K(Ac)[Pen][AEF][2Nal][Thp]EN[3Pal][Sar]-NH2
modifications: disulfide 2-7 (inferred); not fully specified (residue 1); printed as MeCO-k(PEG12gEC20OH)-Pen(3)-N-T-7MeW-K(Ac)-Pen(3)-AEF-2Nal-THP-E-N-3Pya-Sar-CONH2
B14: SEQ ID NO: 21 (peptide)
peptide: Ac-[dR][Pen]NT[Trp(7-Me)]K(Ac)[Pen][AEF][2Nal][Thp]K([PEG2′-PEG2′-γGlu-C18OH])N[3Pal]X-NH2
modifications: disulfide 2-7 (inferred); not fully specified (residue 14); printed as MeCO-r-Pen(3)-N-T-7MeW-K(Ac)-Pen(3)-AEF-2Nal-THP-K(PEG2PEG2gEC18OH)-N-3Pya-NMeK(d)-CONH2
B15: SEQ ID NO: 47 (peptide)
peptide: [dR][Pen]K(code d)T[Trp(7-Me)]K(Ac)[Pen][AEF][2Nal][Thp]EN[3Pal][Sar]-NH2
modifications: disulfide 2-7 (inferred); not fully specified (N-terminus); printed as HOC18gEPEG2PEG2CO-r-Pen(3)-K(d)-T-7MeW-K(Ac)-Pen(3)-AEF-2Nal-THP-E-N-3Pya-Sar-CONH2
B16: SEQ ID NO: 27 (peptide)
peptide: XNTXXXXXXENXXK
modifications: MeCO-Pen(3)-N-T-7MeW-K(Ac)-Pen(3)-AEF-2Nal-THP-E-N-3Pya-Sar-K(PEG2PEG2gEC18OH)-CONH2

Biological target: T1, interleukin-23 receptor (IL-23R)
Experiment: cell-based or functional assay

Binder	PBMC pSTAT3 IC50
Ac-[dR][Pen]NT[Trp(7-Me)]K(Ac)[Pen][AEF][2Nal][Thp]K([PEG4′-Biotin])N[3Pal][Sar]K([PEG2″-PEG2″-γGlu-C18OH])-NH2 (disulfide 2-7) [SEQ ID NO: 56]	< 0.5 nM
Ac-[dR][Pen]NT[Trp(7-Me)]K(Ac)[Pen][AEF][2Nal][Thp]K(code d″)N[3Pal][Sar]K([PEG2″-PEG2″-γGlu-C18OH])-NH2 (disulfide 2-7 (inferred)) [SEQ ID NO: 51]	< 0.5 nM
B1	< 0.5 nM
Ac-[dR][Pen]NT[Trp(7-Me)]K(Ac)[Pen][AEF][2Nal][Thp]K([PEG4′-AcCl])N[3Pal][Sar]K([PEG2′-PEG2′-γGlu-C18OH])-NH2 (disulfide 2-7 (inferred)) [SEQ ID NO: 4]	< 0.5 nM
B2	≥ 5 nM
Ac-K([PEG2′-PEG2′-γGlu-C18OH])[Pen]NT[Trp(7-Me)]K(Ac)[Pen][AEF][2Nal][Thp]K(Ac)N[3Pal][Sar]-NH2 (disulfide 2-7 (inferred)) [SEQ ID NO: 39]	< 0.5 nM
B3	< 0.5 nM
B4	< 0.5 nM
B5	≥ 5 nM
B6	< 0.5 nM
B7	< 0.5 nM
B8	< 0.5 nM
Ac-[dK]([PEG2′-PEG2′-γGlu-C18OH])[Pen]NT[Trp(7-Me)]K(Ac)[Pen][AEF][2Nal][Thp]EN[3Pal][NMeK](code d)-NH2 (disulfide 2-7 (inferred)) [SEQ ID NO: 42]	< 0.5 nM
B9	< 0.5 nM
Ac-[dR][Pen]NT[Trp(7-Me)]Q[Pen][AEF][2Nal][Thp]EN[3Pal][Sar]K([PEG2′-PEG2′-γGlu-C18OH])-NH2 (disulfide 2-7 (inferred)) [SEQ ID NO: 38]	< 0.5 nM
B10	< 0.5 nM
B11	< 0.5 nM
B12	< 0.5 nM
Ac-[dR][Pen]NT[Trp(7-Me)]K(Ac)[Pen][AEF][2Nal][Thp]EN[3Pal][Sar]K([PEG12′-γGlu-C20OH])-NH2 (disulfide 2-7 (inferred)) [SEQ ID NO: 134]	< 0.5 nM
Ac-[dR][Pen]NT[Trp(7-Me)]K(Ac)[Pen][AEF][2Nal][Thp]EN[3Pal][Sar]K([PEG12′-γGlu-C18OH])-NH2 (disulfide 2-7 (inferred)) [SEQ ID NO: 133]	< 0.5 nM
B13	< 0.5 nM
B14	< 0.5 nM
B15	< 0.5 nM
B16	< 0.5 nM

Biological target: T1, interleukin-23 receptor (IL-23R)
Experiment: cell-based or functional assay
Remark: another data set of the same source

Binder	IC50, IL23R reporter assay
Ac-[dR][Pen]NT[Trp(7-Me)]K(Ac)[Pen][AEF][2Nal][Thp]K([PEG4′-Biotin])N[3Pal][Sar]K([PEG2″-PEG2″-γGlu-C18OH])-NH2 (disulfide 2-7) [SEQ ID NO: 56]	< 50 nM
Ac-[dR][Pen]NT[Trp(7-Me)]K(Ac)[Pen][AEF][2Nal][Thp]K(code d″)N[3Pal][Sar]K([PEG2″-PEG2″-γGlu-C18OH])-NH2 (disulfide 2-7 (inferred)) [SEQ ID NO: 51]	≥ 500 nM
B1	< 50 nM
Ac-[dR][Pen]NT[Trp(7-Me)]K(Ac)[Pen][AEF][2Nal][Thp]K([PEG4′-AcCl])N[3Pal][Sar]K([PEG2′-PEG2′-γGlu-C18OH])-NH2 (disulfide 2-7 (inferred)) [SEQ ID NO: 4]	< 50 nM
B2	≥ 500 nM
Ac-K([PEG2′-PEG2′-γGlu-C18OH])[Pen]NT[Trp(7-Me)]K(Ac)[Pen][AEF][2Nal][Thp]K(Ac)N[3Pal][Sar]-NH2 (disulfide 2-7 (inferred)) [SEQ ID NO: 39]	< 50 nM
B3	< 50 nM
B4	< 50 nM
B5	≥ 500 nM
B6	< 50 nM
B7	< 50 nM
B8	< 50 nM
Ac-[dK]([PEG2′-PEG2′-γGlu-C18OH])[Pen]NT[Trp(7-Me)]K(Ac)[Pen][AEF][2Nal][Thp]EN[3Pal][NMeK](code d)-NH2 (disulfide 2-7 (inferred)) [SEQ ID NO: 42]	< 50 nM
B9	< 50 nM
Ac-[dR][Pen]NT[Trp(7-Me)]Q[Pen][AEF][2Nal][Thp]EN[3Pal][Sar]K([PEG2′-PEG2′-γGlu-C18OH])-NH2 (disulfide 2-7 (inferred)) [SEQ ID NO: 38]	< 50 nM
B10	< 50 nM
B11	< 50 nM
B12	< 50 nM
Ac-[dR][Pen]NT[Trp(7-Me)]K(Ac)[Pen][AEF][2Nal][Thp]EN[3Pal][Sar]K([PEG12′-γGlu-C20OH])-NH2 (disulfide 2-7 (inferred)) [SEQ ID NO: 134]	< 50 nM
Ac-[dR][Pen]NT[Trp(7-Me)]K(Ac)[Pen][AEF][2Nal][Thp]EN[3Pal][Sar]K([PEG12′-γGlu-C18OH])-NH2 (disulfide 2-7 (inferred)) [SEQ ID NO: 133]	< 50 nM
B13	< 50 nM
B14	< 50 nM
B15	< 50 nM
B16	< 50 nM
